Measured values as given in patent US20250163180A1 (ABL BIO, published 2025).
Blank lines part the entries; values can stand above or below the binder they belong to.

Tests used:
[1] = target: T1, human 4-1BB-Fc protein (Sino Biological) (human, UniProt Q07011 24-186); assay: ELISA, plate coated with human 4-1BB-Fc at 0.1 ug/mL, detection with HRP-conjugated goat anti-human IgG
T1 construct: not shown: Fc part of the bought fusion protein

[2] = target: T2, human 4-1BB expressed on GloResponse NFkB-luc2/4-1BB Jurkat cells (Promega) (human, UniProt Q07011 24-255); assay: cell-based or functional assay
T2 sequence (Q07011 24-255 limits assumed): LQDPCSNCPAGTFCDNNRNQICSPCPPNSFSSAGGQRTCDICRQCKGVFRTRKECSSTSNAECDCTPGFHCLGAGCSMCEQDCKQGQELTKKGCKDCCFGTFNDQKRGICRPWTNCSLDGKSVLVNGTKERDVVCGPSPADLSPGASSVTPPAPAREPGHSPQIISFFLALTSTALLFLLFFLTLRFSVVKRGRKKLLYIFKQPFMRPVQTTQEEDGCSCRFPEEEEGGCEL

[3] = target: T2, human 4-1BB expressed on GloResponse …; assay: cell-based or functional assay; remark: listed apart in the source
[4] = target: T2, human 4-1BB expressed on GloResponse …; assay: cell-based or functional assay; remark: listed apart in the source

T1 sequence (Q07011 24-186 limits assumed): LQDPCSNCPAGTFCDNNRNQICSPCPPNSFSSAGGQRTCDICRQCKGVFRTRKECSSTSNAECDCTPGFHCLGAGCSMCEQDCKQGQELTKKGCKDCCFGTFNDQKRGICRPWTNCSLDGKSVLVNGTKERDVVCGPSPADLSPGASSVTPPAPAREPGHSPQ

B2: 1A10 (antibody, human IgG4 S228P, lambda, V domains shown)
VH: EVQLLESGGGLVQPGGSLRLSCAASGFTFSSYDMSWVRQAPGKGLEWVSWISYSGGSIYYADSVKGRFTISRDNSKNTLYLQMNSLRAEDTAVYYCARDGQRNSMREFDYWGQGTLVTVSS
VL: QSVLTQPPSASGTPGRRVTISCSGSSSNIGNNYVTWYQQLPGTAPKLLIYADSHRPSGVPDRFSGSKSGTSASLAISGLRSEDEADYYCATWDYSLSGYVFGGGTKLTVLG
notes: also called anti-4-1BB antibody 1A10
- EC50 [1]: 0.24 nM

B4: Urelumab (antibody, V domains shown)
VH: QVQLQQWGAGLLKPSETLSLTCAVYGGSFSGYYWSWIRQSPEKGLEWIGEINHGGYVTYNPSLESRVTISVDTSKNQFSLKLSSVTAADTAVYYCARDYGPGNYDWYFDLWGRGTLVTVSS
VL: EIVLTQSPATLSLSPGERATLSCRASQSVSSYLAWYQQKPGQAPRLLIYDASNRATGIPARFSGSGSGTDFTLTISSLEPEDFAVYYCQQRSNWPPALTFGGGTKVEIK
- fold difference in EC50 with against without FcγRIIb CHO-K1 cells [2]: 2.2 fold
- fold difference in top RLU with against without FcγRIIb CHO-K1 cells [2]: 13.5 fold
- EC50, FcγRIIb-dependent 4-1BB bioassay [3]: 0.236 nM
- Fold of induction (RLU), FcγRIIb-dependent 4-1BB bioassay [3]: 196 fold
- EC50, FcγRIIb-independent 4-1BB bioassay [4]: 0.52 nM
- Fold of induction (RLU), FcγRIIb-independent 4-1BB bioassay [4]: 15.6 fold

Results, then the binder that gave them:

- EC50 [1]: 0.2 nM
B1: AB41 (antibody, human IgG4 S228P, kappa, V domains shown)
VH: QVQLQQSGAEVIKPGASVKLSCKASGYTFSSYWMHWVRQAPGQGLEWIGEINPGNGHTNYNEKFKSRATLTGDTSTSTVYMELSSLRSEDTAVYYCARSFTTARAFAYWGQGTLVTVSS
VL: DIVMTQSPAFLSVTPGEKVTITCRASQTISDYLHWYQQKPDQAPKLLIKYASQSISGIPSRFSGSGSGTDFTFTISSLEAEDAATYYCQDGHSFPPTFGQGTKLEIKR
notes: also called anti-4-1BB antibody AB41

- EC50 [1]: 0.18 nM
B3: 1A12 (antibody, human IgG4 S228P, lambda, V domains shown)
VH: EVQLLESGGGLVQPGGSLRLSCAASGFTFSGYDMSWVRQAPGKGLEWVSVIYPDDGNTYYADSVKGRFTISRDNSKNTLYLQMNSLRAEDAAVYYCAKHGGQKPTTKSSSAYGMDGWGQGTLVTVSS
VL: QSVLTQPPSASGTPGRRVTISCSGSSSNIGNNYVTWYQQLPGTAPKLLIYADSHRPSGVPDRFSGSKSGTSASLAISGLRSEDEADYYCATWDYSLSGYVFGGGTKLTVLG
notes: also called anti-4-1BB antibody 1A12
